In patent EP4414386A1 (dated 2024):

B1: scFv D2B produced in prokaryotic system (bacteria) (scFv)
scFv: EVKLQESGPGLVKPSQSLSLTCSVTGYSITSGYYWNWIRQFPGNKLEWMGSISFDGNNNYNPSLRNRISITRDTSKNQFFLKLNSVTTEDTATYYCAREGDYYGSSFFTYWGQGTLVTVSSGGGGSGGGGSGGGGSALDIVMTQSPASLSASVGETVTLTCGASENIYGALNWYQRKQGKSPQLLIYGATNLADGMSSRFSGSGSGRQYSLKISSLHPDDVATYYCQNVFRTYTFGGGTKLEIKRAAAHHHHHH
notes: also called ScFvD2B from bacteria; scFv produced in bacteria; not shown: Myc tag
B2: scFv D2B produced by synthesis (folded scFv D2B compound 27) (scFv)
scFv: EVKLQESGPGLVKPSQSLSLTCSVTGYSITSGYYWNWIRQFPGNKLEWMGSISFDGNNNYNPSLRNRISITRDTSKNQFFLKLNSVTTEDTATYYCAREGDYYGSSFFTYWGQGTLVTVSSGGGGSGGGGSGGGGSALDIVMTQSPASLSASVGETVTLTCGASENIYGALNWYQRKQGKSPQLLIYGATNLADGMSSRFSGSGSGRQYSLKISSLHPDDVATYYCQNVFRTYTFGGGTKLEIKRAAAHHHHHH
modifications: pyroglutamic acid (<E) at position 1
notes: Fully chemically synthesised, 254 residues, two disulfide bonds (C22-C96 and C161-C226); segment 5 is C226-H254; also called ScFvD2B of synthesis; scFv produced by synthesis
B3: scFv D2B produced in eukaryotic mammalian cells (scFv)
scFv: EVKLQESGPGLVKPSQSLSLTCSVTGYSITSGYYWNWIRQFPGNKLEWMGSISFDGNNNYNPSLRNRISITRDTSKNQFFLKLNSVTTEDTATYYCAREGDYYGSSFFTYWGQGTLVTVSSGGGGSGGGGSGGGGSALDIVMTQSPASLSASVGETVTLTCGASENIYGALNWYQRKQGKSPQLLIYGATNLADGMSSRFSGSGSGRQYSLKISSLHPDDVATYYCQNVFRTYTFGGGTKLEIKRAAAHHHHHH
notes: also called ScFvD2B from eukaryote; scFv produced in eukaryotic mammalian cells

biological target: T1, PSMA antigen (UniProt Q04609 1-750, limits assumed); test: SPR Biacore T200, single-cycle kinetics; PSMA captured from PC3-PIP lysate by 7E11 on CM5 chip
T1 construct: whole, on cells; On PC3-PIP cells in FACS and cell ELISA; in SPR captured on the CM5 chip from the cellular lysate of PC3-PIP by the 7E11 MAb; also called the antigen
T1 sequence (Q04609 whole entry): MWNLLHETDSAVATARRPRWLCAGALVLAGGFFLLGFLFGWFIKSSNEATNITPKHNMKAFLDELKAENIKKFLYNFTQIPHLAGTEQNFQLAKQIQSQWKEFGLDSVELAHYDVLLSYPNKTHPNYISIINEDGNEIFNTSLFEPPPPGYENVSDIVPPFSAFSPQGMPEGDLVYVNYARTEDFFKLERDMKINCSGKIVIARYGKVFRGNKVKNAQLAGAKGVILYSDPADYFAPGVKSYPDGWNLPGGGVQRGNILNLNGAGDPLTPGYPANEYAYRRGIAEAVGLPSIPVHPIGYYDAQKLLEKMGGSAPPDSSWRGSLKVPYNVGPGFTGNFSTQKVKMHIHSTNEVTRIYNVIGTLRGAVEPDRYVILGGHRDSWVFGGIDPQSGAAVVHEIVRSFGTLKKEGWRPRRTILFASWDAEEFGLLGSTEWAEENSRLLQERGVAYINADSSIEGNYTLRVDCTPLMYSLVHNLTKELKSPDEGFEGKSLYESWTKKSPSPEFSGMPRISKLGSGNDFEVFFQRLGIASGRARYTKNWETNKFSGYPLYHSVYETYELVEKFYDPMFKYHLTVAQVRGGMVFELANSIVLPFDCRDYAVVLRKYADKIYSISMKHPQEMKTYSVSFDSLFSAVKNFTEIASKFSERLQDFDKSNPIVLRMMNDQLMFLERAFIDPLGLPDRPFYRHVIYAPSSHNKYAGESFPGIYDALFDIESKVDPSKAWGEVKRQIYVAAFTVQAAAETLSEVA

Binder	Kd [nM]	RU max [RU]
B1	2.3	34
B2	1.9	34
B3	2.8	68
